This note sets out measurements from patent US20140255415A1 (Novartis, published 2014).

Assay [1] deals with T1, human LINGO-1-ΔLRR-Fc (Igleader-hsLINGO-1-ΔLRR-Fc) (human, UniProt Q96FE5 40-556).
T1 construct: Heterologous secretion signal left out; also called human LINGO-1 lacking the LRR domain
T1 sequence: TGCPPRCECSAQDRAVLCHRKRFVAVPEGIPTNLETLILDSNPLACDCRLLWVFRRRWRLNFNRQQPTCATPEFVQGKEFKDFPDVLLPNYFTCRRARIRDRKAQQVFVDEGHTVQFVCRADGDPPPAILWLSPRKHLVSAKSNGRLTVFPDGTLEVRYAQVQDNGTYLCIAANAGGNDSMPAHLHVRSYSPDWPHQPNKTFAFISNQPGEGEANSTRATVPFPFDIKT
Briefly: ELISA, captured Fc fusion protein. A general note: In an ELISA, binding on a coated surface is turned into a signal by an enzyme label.

In assay [2] the target is T2, human NgR-Fc fusion protein (R&D Systems) (human, UniProt Q9BZR6 27-447, limits assumed).
T2 construct: Commercial protein; also called captured human NgR-Fc; not shown: Fc part of the commercial fusion protein; not described
T2 sequence (looked up): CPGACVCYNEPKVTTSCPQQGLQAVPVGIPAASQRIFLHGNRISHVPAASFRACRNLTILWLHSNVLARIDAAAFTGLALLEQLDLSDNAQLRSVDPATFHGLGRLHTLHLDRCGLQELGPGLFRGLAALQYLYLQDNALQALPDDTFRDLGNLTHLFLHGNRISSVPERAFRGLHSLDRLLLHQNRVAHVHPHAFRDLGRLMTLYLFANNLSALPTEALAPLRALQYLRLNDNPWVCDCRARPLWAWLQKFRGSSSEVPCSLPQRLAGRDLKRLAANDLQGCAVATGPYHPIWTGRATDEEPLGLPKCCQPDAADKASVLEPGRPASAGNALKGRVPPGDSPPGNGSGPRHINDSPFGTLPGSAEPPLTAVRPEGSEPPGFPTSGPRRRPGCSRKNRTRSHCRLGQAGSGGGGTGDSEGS
Nature of the assay: ELISA, captured Fc fusion protein.

Assay [3] addresses human LINGO-1 expressed on CHO-K1 cells (CHO-K1-hLINGO-1) (human) (UniProt Q96FE5). Nature of the assay: apparent KD, FACS saturation binding on CHO-K1-hLINGO-1 cells, Fab format.
Assay [4] deals with T3, rat LINGO-1 expressed on CHO-K1 cells (CHO-K1-rLINGO-1) (rat, UniProt A0A8I5ZPI2 34-614).
T3 construct: range 34-614; not shown: 2 amino acid residue linker
T3 sequence: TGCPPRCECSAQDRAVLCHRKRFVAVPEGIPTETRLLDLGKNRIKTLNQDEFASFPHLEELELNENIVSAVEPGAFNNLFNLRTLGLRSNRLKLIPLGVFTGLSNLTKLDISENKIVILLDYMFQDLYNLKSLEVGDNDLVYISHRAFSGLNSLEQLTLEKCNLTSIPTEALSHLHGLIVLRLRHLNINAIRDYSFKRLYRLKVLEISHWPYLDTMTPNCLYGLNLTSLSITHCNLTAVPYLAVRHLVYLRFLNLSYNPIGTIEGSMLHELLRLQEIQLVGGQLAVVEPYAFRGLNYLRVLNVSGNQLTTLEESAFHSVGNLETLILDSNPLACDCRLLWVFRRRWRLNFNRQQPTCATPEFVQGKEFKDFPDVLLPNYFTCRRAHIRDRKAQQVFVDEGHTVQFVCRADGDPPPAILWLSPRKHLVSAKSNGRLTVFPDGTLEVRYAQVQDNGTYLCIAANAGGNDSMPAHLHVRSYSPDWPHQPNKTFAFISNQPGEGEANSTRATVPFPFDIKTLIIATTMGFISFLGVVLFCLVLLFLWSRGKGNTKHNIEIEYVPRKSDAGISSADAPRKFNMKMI
Nature of the assay: apparent KD, FACS saturation binding on CHO-K1-rLINGO-1 cells, Fab format. The procedure: Cell based affinity of anti-LINGO-1 specific antibodies is determined by FACS saturation binding experiments. […] Otherwise the staining procedure is done identical to the FACS staining procedure described above.
In detail, CHO-K1-hLINGO-1, CHO-K1-cmLINGO-1 or CHO-K1-rLINGO-1 are detached from culture flasks by versene, washed with FACS buffer and resuspended in FACS buffer. Purified anti-LINGO-1 Fabs are serially diluted in FACS buffer and spread into round bottom 96-well microtiter plates (NUNC™, Wiesbaden, Germany). For each concentration, duplicate wells are incubated with 1.25×10⁴ cells for 30-60 min on ice in a total volume of 100 μl.

The target in the next assay is Unrelated Fc. Nature of the assay: ELISA, Fc fusion captured via goat anti-human IgG Fc, Fab detected with AP-conjugated secondary and AttoPhos.
In assay [5] the target is T1, human LINGO-1-ΔLRR-Fc …. Described as above.
Assay [6] addresses T2, human NgR-Fc fusion protein (R&D …). Described as above.
Assay [7] has as its target T4, human LINGO-1-Fc fusion protein (natleader-hsLINGO-1-Fc) (human, UniProt Q96FE5 42-556).
T4 construct: also called human recombinant LINGO-1-Fc; captured human LINGO-1-Fc; not shown: protein lette
T4 sequence: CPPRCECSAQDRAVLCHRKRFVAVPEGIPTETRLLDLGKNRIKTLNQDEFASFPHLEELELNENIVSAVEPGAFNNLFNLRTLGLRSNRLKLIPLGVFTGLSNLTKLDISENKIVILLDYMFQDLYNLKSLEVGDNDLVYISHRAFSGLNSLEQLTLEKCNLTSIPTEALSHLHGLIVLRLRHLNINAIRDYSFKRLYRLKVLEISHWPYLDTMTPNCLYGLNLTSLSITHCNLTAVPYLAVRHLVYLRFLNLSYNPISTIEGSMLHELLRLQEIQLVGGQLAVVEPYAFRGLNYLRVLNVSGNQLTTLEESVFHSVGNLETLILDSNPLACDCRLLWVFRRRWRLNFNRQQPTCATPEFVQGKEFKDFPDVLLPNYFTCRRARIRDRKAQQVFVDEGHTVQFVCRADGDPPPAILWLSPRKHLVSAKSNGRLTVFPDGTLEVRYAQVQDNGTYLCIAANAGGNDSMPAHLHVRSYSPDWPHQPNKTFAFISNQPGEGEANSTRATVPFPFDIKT
The assay is described as above.

B1: anti-LINGO-1 Fab 4785 (Fab, V domains shown)
VH: QVQLQQSGPGLVKPSQTLSLTCAISGDSVSDNSAAWSWIRQSPGRGLEWLGLIYLRSKWDNDYAVSVKSRITINPDTSKNQFSLQLNSVTPEDTAVYYCARTGRADEFDVWGQGTLVTVSS
VL: DIVLTQPPSVSGAPGQRVTISCSGSSSNIGNNYVSWYQQLPGTAPKLLISRNSKRPSGVPDRFSGSKSGTSASLAITGLQSEDEADYYCSTYDTFSIVFGGGTKLTVLG
As for B1, the binding result in assay [1] and in assay [2] was “no binding” in each case. The values for the Kd in assay [3] and in assay [4] were 350 pM and 260 pM, respectively. Further, the relative fluorescence units (RFU) amounted to 6 RFU with Unrelated Fc, 8 RFU in assay [5], 7 RFU in assay [6] and 113 RFU in assay [7].
